Measured values as given in the supplement of paper PMC9112550, “Optimization of the antimicrobial peptide Bac7 by deep mutational scanning” (BMC Biology, 2022).

Tested on: Escherichia coli TOP10
Experiment: shrunken log2 fold change of peptide-encoding DNA abundance (4.5 h post-induction vs induction); higher = less antimicrobial activity (less host growth inhibition)
Settings: time post-induction: 4.5 h; library: site-saturation at positions 5, 18, 19, 20
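Also: peptides expressed intracellularly from a pBAD plasmid library in pooled LB shake-flask culture, induced with 0.3% L-arabinose, DNA abundance read by NGS, three biological replicates, DESeq2 with apeglm shrinkage.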

Sequence	shrunken log2 fold change
RRIRRRPPRLPRPRPRPDNTPRP	0.876
RRIRTRPPRLPRPRPRPPPGPRP	0.668
RRIRERPPRLPRPRPRPKIDPRP	-0.0798
RRIRYRPPRLPRPRPRPMFEPRP	-0.315
RRIRIRPPRLPRPRPRPFCGPRP	-0.228
RRIRVRPPRLPRPRPRPTPVPRP	0.465
RRIRRRPPRLPRPRPRPCFEPRP	0.0864
RRIRLRPPRLPRPRPRPFRHPRP	-0.322
RRIRERPPRLPRPRPRPDDTPRP	-0.0925
RRIRLRPPRLPRPRPRPFEKPRP	-0.0511
RRIRPRPPRLPRPRPRPQLGPRP	0.159
RRIRERPPRLPRPRPRPNLGPRP	-0.161
RRIRVRPPRLPRPRPRPMSHPRP	0.171
RRIRERPPRLPRPRPRPMTYPRP	-0.121
RRIRWRPPRLPRPRPRPDCSPRP	0.113
RRIRMRPPRLPRPRPRPAAHPRP	0.531
RRIRGRPPRLPRPRPRPEITPRP	0.542
RRIRIRPPRLPRPRPRPVTCPRP	-0.255
RRIRVRPPRLPRPRPRPFFDPRP	1.19
RRIRWRPPRLPRPRPRPRPGPRP	0.772
RRIRVRPPRLPRPRPRPSNMPRP	-0.124
RRIRDRPPRLPRPRPRPSIRPRP	-0.103
RRIRKRPPRLPRPRPRPQWRPRP	0.309
RRIRDRPPRLPRPRPRPVLCPRP	0.28
RRIRDRPPRLPRPRPRPKYEPRP	-0.00728

Sequence	shrunken log2 fold change
RRIRKRPPRLPRPRPRPRMTPRP	0.635
RRIRRRPPRLPRPRPRPAQIPRP	0.494
RRIRCRPPRLPRPRPRPDYNPRP	-0.571
RRIRVRPPRLPRPRPRPHNPPRP	-0.272
RRIRFRPPRLPRPRPRPNKPPRP	-0.00705
RRIRRRPPRLPRPRPRPIHRPRP	-0.041
RRIRTRPPRLPRPRPRPYQCPRP	-0.0724
RRIRKRPPRLPRPRPRPSQLPRP	0.141
RRIRYRPPRLPRPRPRPGEVPRP	-0.0129
RRIRMRPPRLPRPRPRPDNKPRP	-0.336
RRIRRRPPRLPRPRPRPKDRPRP	0.09
RRIRPRPPRLPRPRPRPRINPRP	-0.16
RRIRGRPPRLPRPRPRPLLGPRP	0.833
RRIRTRPPRLPRPRPRPIDYPRP	-0.231
RRIRPRPPRLPRPRPRPKEIPRP	-0.0621
RRIRVRPPRLPRPRPRPIMNPRP	-0.752
RRIRNRPPRLPRPRPRPWQPPRP	0.104
RRIRERPPRLPRPRPRPRIMPRP	-0.712
RRIRWRPPRLPRPRPRPHAGPRP	-0.0783
RRIRCRPPRLPRPRPRPMWEPRP	-0.0554
RRIRQRPPRLPRPRPRPEDPPRP	-0.00697
RRIRWRPPRLPRPRPRPLTTPRP	0.235
RRIRTRPPRLPRPRPRPAEVPRP	-0.108
RRIRGRPPRLPRPRPRPIGCPRP	0.0147
RRIRSRPPRLPRPRPRPTHTPRP	0.106

Sequence	shrunken log2 fold change
RRIRYRPPRLPRPRPRPDKKPRP	-0.0333
RRIRKRPPRLPRPRPRPTMEPRP	0.204
RRIRQRPPRLPRPRPRPNQSPRP	-0.0722
RRIRPRPPRLPRPRPRPACAPRP	0.593
RRIRDRPPRLPRPRPRPYQMPRP	-0.796
RRIRVRPPRLPRPRPRPWPAPRP	-0.0676
RRIRYRPPRLPRPRPRPGKPPRP	-0.0225
RRIRIRPPRLPRPRPRPDYVPRP	0.012
RRIRCRPPRLPRPRPRPTPMPRP	0.534
RRIRDRPPRLPRPRPRPKSAPRP	0.0797
RRIRLRPPRLPRPRPRPIDPPRP	-0.379
RRIRKRPPRLPRPRPRPMFYPRP	-0.169
RRIRYRPPRLPRPRPRPRYGPRP	-0.678
RRIRRRPPRLPRPRPRPHNNPRP	-0.508
RRIRGRPPRLPRPRPRPWHEPRP	-0.357
RRIRARPPRLPRPRPRPKIMPRP	-0.0664
RRIRHRPPRLPRPRPRPTAGPRP	-0.0268
RRIRLRPPRLPRPRPRPIDSPRP	-0.0384
RRIRSRPPRLPRPRPRPHKSPRP	-0.414
RRIRMRPPRLPRPRPRPCTEPRP	-0.0649
RRIRQRPPRLPRPRPRPGSSPRP	-0.172
RRIRKRPPRLPRPRPRPTNHPRP	-0.0148
RRIRARPPRLPRPRPRPQSEPRP	0.152
RRIRDRPPRLPRPRPRPQLHPRP	0.267
RRIRSRPPRLPRPRPRPYGIPRP	0.104

Sequence	shrunken log2 fold change
RRIRSRPPRLPRPRPRPNACPRP	0.0406
RRIRVRPPRLPRPRPRPDCRPRP	-0.0921
RRIRPRPPRLPRPRPRPDQLPRP	-0.0341
RRIRTRPPRLPRPRPRPGAVPRP	0.104
RRIRARPPRLPRPRPRPETQPRP	1.57
RRIRGRPPRLPRPRPRPLPPPRP	1.19
RRIRWRPPRLPRPRPRPKIQPRP	0.21
RRIRIRPPRLPRPRPRPRYWPRP	0.0433
RRIRYRPPRLPRPRPRPRAPPRP	0.271
RRIRPRPPRLPRPRPRPTKRPRP	0.265
RRIRRRPPRLPRPRPRPRPGPRP	0.557
RRIRMRPPRLPRPRPRPGMRPRP	1.54
RRIRMRPPRLPRPRPRPMHPPRP	0.0065
RRIRDRPPRLPRPRPRPVIMPRP	-0.381
RRIRDRPPRLPRPRPRPLDQPRP	0.0626
RRIRMRPPRLPRPRPRPDEQPRP	0.0522
RRIRERPPRLPRPRPRPTNVPRP	-0.387
RRIRQRPPRLPRPRPRPNANPRP	0.00568
RRIRARPPRLPRPRPRPTHQPRP	0.528
RRIRRRPPRLPRPRPRPGVIPRP	-0.0223
RRIRVRPPRLPRPRPRPNFQPRP	-0.175
RRIRARPPRLPRPRPRPNMAPRP	0.114
RRIRFRPPRLPRPRPRPAFHPRP	-0.228
RRIRNRPPRLPRPRPRPDPHPRP	-0.263
RRIRKRPPRLPRPRPRPYFTPRP	-0.0968

Sequence	shrunken log2 fold change
RRIRIRPPRLPRPRPRPPGNPRP	-0.233
RRIRGRPPRLPRPRPRPSQNPRP	0.229
RRIRLRPPRLPRPRPRPKSFPRP	-0.0686
RRIRARPPRLPRPRPRPCYSPRP	-0.525
RRIRIRPPRLPRPRPRPSQFPRP	-0.604
RRIRLRPPRLPRPRPRPPMWPRP	0.26
RRIRERPPRLPRPRPRPGLNPRP	0.127
RRIRSRPPRLPRPRPRPQPAPRP	0.0373
RRIRSRPPRLPRPRPRPREFPRP	0.322
RRIRHRPPRLPRPRPRPYREPRP	0.0421
RRIRRRPPRLPRPRPRPTYSPRP	-0.116
RRIRFRPPRLPRPRPRPLLLPRP	-0.443
RRIRDRPPRLPRPRPRPHHHPRP	-0.505
RRIRIRPPRLPRPRPRPVDSPRP	0.0804
RRIRFRPPRLPRPRPRPYVVPRP	-0.252
RRIRVRPPRLPRPRPRPFDRPRP	0.121
RRIRGRPPRLPRPRPRPVHRPRP	-0.0492
RRIRCRPPRLPRPRPRPRWGPRP	0.495
RRIRHRPPRLPRPRPRPGVYPRP	-0.138
RRIRYRPPRLPRPRPRPPWGPRP	-0.0336
RRIRERPPRLPRPRPRPLPLPRP	-0.0754
RRIRVRPPRLPRPRPRPMCEPRP	0.0553
RRIRARPPRLPRPRPRPWRTPRP	0.14
RRIRMRPPRLPRPRPRPEDNPRP	0.0325
RRIRYRPPRLPRPRPRPHMIPRP	-0.734

Sequence	shrunken log2 fold change
RRIRGRPPRLPRPRPRPLSEPRP	0.52
RRIRPRPPRLPRPRPRPDWTPRP	-0.063
RRIRRRPPRLPRPRPRPHIRPRP	0.00753
RRIRYRPPRLPRPRPRPGLAPRP	0.323
RRIRLRPPRLPRPRPRPCEQPRP	0.0377
RRIRGRPPRLPRPRPRPDYEPRP	0.19
RRIRKRPPRLPRPRPRPWLCPRP	0.466
RRIRCRPPRLPRPRPRPFLPPRP	-0.265
RRIRKRPPRLPRPRPRPMPGPRP	0.0564
RRIRCRPPRLPRPRPRPSQYPRP	-0.471
RRIRTRPPRLPRPRPRPFESPRP	0.0313
RRIRTRPPRLPRPRPRPQKIPRP	-0.123
RRIRARPPRLPRPRPRPSQVPRP	0.0429
RRIRQRPPRLPRPRPRPEDTPRP	-0.0122
RRIRFRPPRLPRPRPRPMLIPRP	-0.217
RRIRCRPPRLPRPRPRPPQLPRP	0.329
RRIRFRPPRLPRPRPRPIKRPRP	0.988
RRIRWRPPRLPRPRPRPTNPPRP	-0.0172
RRIRLRPPRLPRPRPRPVQRPRP	0.134
RRIRARPPRLPRPRPRPMMEPRP	0.0919
RRIRKRPPRLPRPRPRPITYPRP	-0.193
RRIRCRPPRLPRPRPRPRNNPRP	-0.282
RRIRSRPPRLPRPRPRPCIHPRP	-1.37
RRIRDRPPRLPRPRPRPSYHPRP	-0.835
RRIRGRPPRLPRPRPRPYTVPRP	0.0498
